According to US20210221875A1 (Chugai, published 2021):
Each block holds one binder with its values, some of them ahead of it.

Assays:
[1] = biological target: T1, Human aggrecan G1-IGD-G2 domain with Flag-tag on its C-terminus (human, UniProt P16112 17-675); experiment: SPR (Biacore), 37 C, as in Example 20
T1 construct: used unlabelled as Biacore analyte; also called human aggrecan G1-IGD-G2-Flag; human Aggrecan G1G2 flag
Method: (§1) The binding affinity of the antibodies at pH 7.4 was determined at 37 degrees C. using Biacore T200 instrument (GE Healthcare). Recombinant Protein A/G (Pierce) was immobilized onto all flow cells of a CM4 sensor chip using amine coupling kit (GE Healthcare). Antibodies and analytes were prepared in buffer (20 mM Sodium Phosphate, 150 mM NaCl, 0.05% Tween 20, 0.005% NaN₃, pH 7.4). Each antibody was captured onto the sensor surface by protein A/G. Antibody capture levels were aimed at 200 resonance unit (RU). […] Sensor surface was regenerated each cycle with 10 mM Glycine-HCl pH 1.5.

[2] = biological target: T2, biotin-rabbit aggrecan G1-IGD-G2-3xFlag (rabbit, UniProt Q28670 17-683, biotin on the N-terminal Avi-tag (BirA co-expression)); experiment: SPR (Biacore), 37 C, as in Example 20
T2 construct: three tandem Flag-tags at the C-terminus and Avi-tag at the N-terminus; also called biotinylated Avi-rabbit aggrecan G1-IGD-G2-3xFLAG; Avi RbG1G2 3FLAG
Method: as §1

[3] = biological target: T2, biotin-rabbit aggrecan G1-IGD-G2-3xFlag; experiment: SPR (Biacore T200), 37 C, pH 7.4, antibody captured, Avi RbG1G2 3Flag as analyte, 1:1 model;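 also: antibodies captured at roughly 200 RU on a CM4 or C1 chip through anti-human IgG Fc or Protein A/G, in sodium phosphate NaCl buffer with Tween 20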
Method: (§2) Anti-Human IgG (Fc) antibody was immobilized onto all flow cells of a CM4 sensor chip using Human antibody capture kit (GE Healthcare). Protein A/G was immobilized onto all flow cells of a CM4 or C1 sensor chip using amine coupling kit (GE Healthcare). Antibodies and analytes were prepared in buffer (50 mM Sodium Phosphate, 150 mM NaCl, 0.02% Tween 20, 0.005% NaN3, pH 7.4 or 20 mM Sodium Phosphate, 150 mM NaCl, 0.05% Tween20, 0.005% NaN₃, pH 7.4). Each antibody was captured onto the sensor surface by Anti-Human IgG (Fc) antibody or Protein A/G. Antibody capture levels were aimed at 200 resonance unit (RU). […] Sensor surface was regenerated each cycle with 3 M MgCl₂ or 10 mM Glycine-HCl, pH 1.5.

[4] = biological target: T2, biotin-rabbit aggrecan G1-IGD-G2-3xFlag; experiment: SPR (Biacore T200), 37 C, pH 7.4, antibody captured, Avi RbG1G2 3Flag as analyte, 1:1 model; second row with this name
Method: as §2

human CD3ed-Fc = biological target: T3, human CD3ed-Fc (human); experiment: BLI (Octet RED), human CD3ed-Fc on the sensor
T3 construct: human CD3 epsilon and human CD3 delta linked to a human antibody constant region, biotinylated in culture with BirA; also called CD3 epsilon delta heterodimer fused with the antibody constant region; biotin-labeled human CD3ed-Fc
T3 chain 1: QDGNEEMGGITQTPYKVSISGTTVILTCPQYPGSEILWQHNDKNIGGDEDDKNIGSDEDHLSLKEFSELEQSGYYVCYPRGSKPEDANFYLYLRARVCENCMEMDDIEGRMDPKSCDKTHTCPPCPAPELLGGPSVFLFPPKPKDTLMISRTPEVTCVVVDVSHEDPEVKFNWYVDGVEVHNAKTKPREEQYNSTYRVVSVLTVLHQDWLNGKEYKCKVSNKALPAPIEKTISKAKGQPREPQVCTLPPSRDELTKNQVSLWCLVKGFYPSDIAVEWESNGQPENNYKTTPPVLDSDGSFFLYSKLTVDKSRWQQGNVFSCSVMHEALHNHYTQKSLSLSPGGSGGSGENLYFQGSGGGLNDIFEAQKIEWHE
T3 chain 2: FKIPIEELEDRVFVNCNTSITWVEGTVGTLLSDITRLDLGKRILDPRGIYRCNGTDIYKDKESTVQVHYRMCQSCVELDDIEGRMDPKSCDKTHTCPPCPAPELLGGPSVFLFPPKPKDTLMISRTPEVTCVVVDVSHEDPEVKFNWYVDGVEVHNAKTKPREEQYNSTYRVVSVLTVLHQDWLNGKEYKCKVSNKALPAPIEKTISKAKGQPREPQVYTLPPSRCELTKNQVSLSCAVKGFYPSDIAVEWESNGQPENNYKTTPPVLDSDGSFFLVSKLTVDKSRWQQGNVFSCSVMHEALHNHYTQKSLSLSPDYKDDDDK

[5] = biological target: T1, Human aggrecan G1-IGD-G2 domain with …; experiment: SPR (Biacore T200), 37 C, pH 7.4, antibody captured by protein A/G, 1:1 model; footnote: fitting was not good due to bi-phasic interaction
Method: as §1

[6] = biological target: T2, biotin-rabbit aggrecan G1-IGD-G2-3xFlag; experiment: as above
Method: as §1

soluble human IL-6R = biological target: T4, soluble human IL-6R (human, UniProt P08887 20-357); experiment: BLI (Octet HTX), molecule on Protein A sensor, hsIL-6R as analyte, 30 C
T4 construct: also called hsIL-6R; recombinant human IL6R
T4 sequence: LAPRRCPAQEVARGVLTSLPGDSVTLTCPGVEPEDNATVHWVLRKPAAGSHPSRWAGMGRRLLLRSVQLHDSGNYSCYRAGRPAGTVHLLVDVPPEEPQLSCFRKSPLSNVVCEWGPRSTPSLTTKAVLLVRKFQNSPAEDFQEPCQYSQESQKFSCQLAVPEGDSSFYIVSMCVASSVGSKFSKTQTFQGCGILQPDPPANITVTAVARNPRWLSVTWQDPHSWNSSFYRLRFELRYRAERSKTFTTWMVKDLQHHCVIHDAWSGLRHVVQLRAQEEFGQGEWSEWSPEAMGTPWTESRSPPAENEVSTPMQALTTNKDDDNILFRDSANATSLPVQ
Method: The hsIL-6R binding evaluation of each molecule was conducted using Octet HTX (Pall ForteBio Corp.).

[7] = biological target: T1, Human aggrecan G1-IGD-G2 domain with …; experiment: SPR (Biacore T200), 37 C, pH 7.4, antibody captured by protein A/G, 1:1 model
Method: as §1

[8] = biological target: T2, biotin-rabbit aggrecan G1-IGD-G2-3xFlag; experiment: as above
Method: as §1

- Kd [1]: 553 nM
- koff [1]: 0.0108 s⁻¹
- kon [1]: 19500 M⁻¹ s⁻¹
- Kd [2]: 16.4 nM
- koff [2]: 0.000333 s⁻¹
- kon [2]: 20400 M⁻¹ s⁻¹
B1: GRA0124ccAE02-rbIgG (antibody)
heavy: QSVEESGGRLVTPGTPLTLTCTVSGVDLSNYAIHWVRQAPGKGLEWIGMIRSNGMRYYGTWAKGRFTTSKTSSTTVDLKMTSPTTEDTATYFCARLWNIWGPGTLVTVSSGQPKAPSVFPLAPCCGDTPSSTVTLGCLVKGYLPEPVTVTWNSGTLTNGVRTFPSVRQSSGLYSLSSVVSVTSSSQPVTCNVAHPATNTKVDKTVAPSTCSKPMCPPPELLGGPSVFIFPPKPKDTLMISRTPEVTCVVVDVSQDDPEVQFTWYINNEQVRTARPPLREQQFNSTIRVVSTLPIAHQDWLRGKEFKCKVHNKALPAPIEKTISKARGQPLEPKVYTMGPPREELSSRSVSLTCMINGFYPSDISVEWEKNGKAEDNYKTTPTVLDSDGSYFLYSKLSVPTSEWQRGDVFTCSVMHEALHNHYTQKSISRSPGK
light: QVLTQTPSSTSVAVGGTVTINCQSSPSVYLNLLAWYQQKPGQPPKLLIYSASFLQSGVPPRFSGSGSGTQFTLTISGVQCADAATYYCAGVYSNNIYTFGGGTKVEIKRDPVAPTVLIFPPAADQVATGTVTIVCVANKYFPDVTVTWEVDGTTQTTGIENSKTPQNSADCTYNLSSTLTLTSTQYNSHKEYTCKVTQGTTSVVQSFNRGDC
notes: also called GRA0124ccAE02-rIgG

- Kd [3]: 15.6 nM
- koff [3]: 0.000838 s⁻¹
- kon [3]: 53900 M⁻¹ s⁻¹
- Kd [4]: 4.07 nM
- koff [4]: 0.000341 s⁻¹
- kon [4]: 83800 M⁻¹ s⁻¹
B2: GRA0124Hc0626-SG1/GRA0124Lc0544-SK2 (antibody, human IgG1, kappa)
heavy: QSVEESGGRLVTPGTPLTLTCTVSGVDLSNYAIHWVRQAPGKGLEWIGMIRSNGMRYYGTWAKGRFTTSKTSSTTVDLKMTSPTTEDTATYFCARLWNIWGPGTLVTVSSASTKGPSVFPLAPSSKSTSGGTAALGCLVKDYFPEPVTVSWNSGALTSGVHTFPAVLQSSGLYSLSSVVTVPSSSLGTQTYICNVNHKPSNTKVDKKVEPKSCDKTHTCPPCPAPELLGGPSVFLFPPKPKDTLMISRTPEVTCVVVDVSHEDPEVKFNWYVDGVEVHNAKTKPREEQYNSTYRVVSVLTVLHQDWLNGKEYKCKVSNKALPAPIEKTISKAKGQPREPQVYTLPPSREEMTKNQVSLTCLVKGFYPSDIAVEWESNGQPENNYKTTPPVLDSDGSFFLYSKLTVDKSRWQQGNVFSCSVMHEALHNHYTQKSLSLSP
light: AQVLTQTPSSTSVAVGGTVTINCQSSPSVYLNLLAWYQQKPGQPPKLLIYSASFLQSGVPPRFSGSGSGTQFTLTISGVQCADAATYYCAGVYSNNIYTFGGGTKVEIKRTVAAPSVFIFPPSDEQLKSGTASVVCLLNNFYPREAKVQWKVDNALQSGNSQESVTEQDSKDCTYSLSSTLTLSKADYEKHKVYACEVTHQGLSSPVTKSFNRGEC
notes: also called GRA0124ccAE02-SG1; GRA124ccAE02-SG1

- binding result (human CD3ed-Fc): no binding
B3: bC3edL1R1N160H01-G1mISHI01/VK1-39-k0MT (antibody, human IgG1, kappa, V domains shown)
VH: QVQLVESGGGLVQPGGSLRLSCAASGFTFNHCWMYWVRQAPGKGLEWVSVINTDGGSAYYADSVKGRFTISRDNAKNTLYLQMNSLKSEDTAVYYCARDWAPLVDYYYGMDYWGKGTLVTVSG
VL: DIQMTQSPSSLSASVGDRVTITCRASQSISSYLNWYQQKPGKAPKLLIYAASSLQSGVPSRFSGSGSGTDFTLTISSLQPEDFATYYCLQFDSYPLTFGGGTKVEIKR

- binding result (human CD3ed-Fc): no binding
B4: bC3edL1R1N164H01-G1mISHI01/VK1-39-k0MT (antibody, human IgG1, kappa, V domains shown)
VH: QVQLVESGGGLVQPGGSLRLSCAASGFTFDVYGMSWVRHSPGKGLEWVSTINWNGGSTYYAESMKGRFTISRDNAKNTVYLQMNSLKPEDTAVYYCAKFAPWDGDMEWGQGTQVTVSG
VL: B3 VL
notes: uncleaved

- binding result (human CD3ed-Fc): no binding
B5: bC3edL1R1N161H01-G1mISHI01/VK1-39-k0MT (antibody, human IgG1, kappa, V domains shown)
VH: QVQLVESGGGLVQPGGSLRLSCAASGFPFDNYVMSWVRQAPGKGLEWISAISWNGGSTYYAESMKGRFTISRDNAKSTLYLQMNSLKSEDTAVYYCAKEPRVYYSGSPDYWGQGTQVTVSG
VL: B3 VL
notes: uncleaved

- Kd [5]: 3.16 nM
- koff [5]: 0.000287 s⁻¹
- kon [5]: 91100 M⁻¹ s⁻¹
- Kd [6]: 4.42 nM
- koff [6]: 0.000255 s⁻¹
- kon [6]: 57700 M⁻¹ s⁻¹
B6: GRA0105gg-rbIgG (antibody)
heavy: QSLEESGGGLVTPGTPLTLTCTVSGLSLSNSVMSWVRQAPGKGLEWIGFISIHDETNYATWAKGRFTISKTSSTTVDLKMTSPTTDDTATYFCARDGDSHGFYFGLWGPGTLVTVSSGQPKAPSVFPLAPCCGDTPSSTVTLGCLVKGYLPEPVTVTWNSGTLTNGVRTFPSVRQSSGLYSLSSVVSVTSSSQPVTCNVAHPATNTKVDKTVAPSTCSKPMCPPPELLGGPSVFIFPPKPKDTLMISRTPEVTCVVVDVSQDDPEVQFTWYINNEQVRTARPPLREQQFNSTIRVVSTLPIAHQDWLRGKEFKCKVHNKALPAPIEKTISKARGQPLEPKVYTMGPPREELSSRSVSLTCMINGFYPSDISVEWEKNGKAEDNYKTTPTVLDSDGSYFLYSKLSVPTSEWQRGDVFTCSVMHEALHNHYTQKSISRSPGK
light: QVLTQTPSPVSAAVGGTVTINCQASQSVYNKNNLAWYQQKPGQPPKLLIYDASKLASGVPSRFKGGGSGTHFTLTISGVQCDDAATYYCQGTYYSSGWYNTFGGGTKVEIKRDPVAPTVLIFPPAADQVATGTVTIVCVANKYFPDVTVTWEVDGTTQTTGIENSKTPQNSADCTYNLSSTLTLTSTQYNSHKEYTCKVTQGTTSVVQSFNRGDC
notes: anti-aggrecan antibody, rabbit constant regions rbIgG / rbIgK

- binding result (soluble human IL-6R): no binding
B7: IL6R90-G1m/VK2-28-k0MT (antibody, human IgG1, kappa, V domains shown)
VH: EVQLVESGGGLVQPGGSLRLSCAASGFTFDDYGMSWVRQAPGKALEWVSAISWNGNNTYYTESMKGRFTISRDNAKNTLYLQMNSLRPEDTAVYYCVKGSTAIVGVPPTYPDEYDYWGQGTLVTVSS
VL: not shown
notes: IgG antibody-like molecule with VHH IL6R90 in place of VH

- binding result (soluble human IL-6R): no binding
B8: IL6R90-G1m/VL1-40-lamL (antibody, human IgG1, lambda, V domains shown)
VH: B7 VH
VL: QSVLTQPPSVSGAPGQRVTISCTGSSSNIGAGYDVHWYQQLPGTAPKLLIYGNSNRPSGVPDRFSGSKSGTSASLAITGLQAEDEADYYCQSYDNSLNAVVFGGGTKLTVLG
notes: as for B7

- binding result (soluble human IL-6R): no binding
B9: IL6R90-G1m/VL2-14-lamL (antibody, human IgG1, lambda, V domains shown)
VH: B7 VH
VL: QSALTQPASVSGSPGQSITISCTGTSSDVGGYNYVSWYQQHPGKAPKLMIYEVSNRPSGVSNRFSGSKSGNTASLTISGLQAEDEADYYCSSYRSGYTLVVFGGGTKLTVLG
notes: as for B7

- binding result (soluble human IL-6R): no binding
B10: IL6R90-G1m/VL1-44-lamL (antibody, human IgG1, lambda, V domains shown)
VH: B7 VH
VL: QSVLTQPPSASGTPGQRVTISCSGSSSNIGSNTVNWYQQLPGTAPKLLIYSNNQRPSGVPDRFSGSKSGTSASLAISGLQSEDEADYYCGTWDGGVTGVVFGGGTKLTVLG
notes: as for B7

- Kd [7]: 1540 nM
- koff [7]: 0.0406 s⁻¹
- kon [7]: 26300 M⁻¹ s⁻¹
- Kd [8]: 459 nM
- koff [8]: 0.00973 s⁻¹
- kon [8]: 21200 M⁻¹ s⁻¹
B11: GRA1013hq-rIgG (antibody)
heavy: EVKLMESGGGLVKPGGSLKLSCAASGFTFSSYAMSWVRQTPEKRLEWVTSISSGGTTYYPDSVKGRFTISRDNARNILFLQMSSLRSEDTAMYYCARGPHWYLDVWGAGTSVTVSSSTKGGQPKAPSVFPLAPCCGDTPSSTVTLGCLVKGYLPEPVTVTWNSGTLTNGVRTFPSVRQSSGLYSLSSVVSVTSSSQPVTCNVAHPATNTKVDKTVAPSTCSKPMCPPPELLGGPSVFIFPPKPKDTLMISRTPEVTCVVVDVSQDDPEVQFTWYINNEQVRTARPPLREQQFNSTIRVVSTLPIAHQDWLRGKEFKCKVHNKALPAPIEKTISKARGQPLEPKVYTMGPPREELSSRSVSLTCMINGFYPSDISVEWEKNGKAEDNYKTTPTVLDSDGSYFLYSKLSVPTSEWQRGDVFTCSVMHEALHNHYTQKSISRSPGK
light: DILMTQTPLSLPVSLGDQASISCRSSQSIVHSNGNTYLEWYLQKPGQSPKLLIYKVSNRFSGVPDRFSGSGSGTDFTLKISRVEAEDLGVYYCFQGSHLPLTFGAGTKLELKRTVAARDPVAPTVLIFPPAADQVATGTVTIVCVANKYFPDVTVTWEVDGTTQTTGIENSKTPQNSADSTYNLSSTLTLTSTQYNSHKEYTCKVTQGTTSVVQSFNRGDC
notes: anti-aggrecan antibody from mouse B cells, rabbit constant regions rbIgG / rbIgK2
